Laboratory results as given in patent US12440565.
One block for each binder: values may come before it.

Target: CD40 on the surface of mature dendritic cells (mDC) (human) (UniProt P25942)
Experiment: cell-based or functional assay

Chain of CD40 on the surface of mature dendritic cells (mDC) (human) (P25942 21-277): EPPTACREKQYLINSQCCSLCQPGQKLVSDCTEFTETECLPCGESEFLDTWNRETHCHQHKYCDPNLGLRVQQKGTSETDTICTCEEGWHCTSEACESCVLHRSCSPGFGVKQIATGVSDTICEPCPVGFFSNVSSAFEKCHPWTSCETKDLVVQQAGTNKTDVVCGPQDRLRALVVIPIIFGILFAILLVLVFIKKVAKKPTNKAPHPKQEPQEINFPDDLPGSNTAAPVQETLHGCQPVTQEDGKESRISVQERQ

- CD83+ (%) of mDC at 0.001 µg/mL Cifurtilimab: 83.4%
- CD83+ (%) of mDC at 0.01 µg/mL Cifurtilimab: 84.6%
- CD83+ (%) of mDC at 0.1 µg/mL Cifurtilimab: 93.3%
- CD83+ (%) of mDC at 1 µg/mL Cifurtilimab: 94.1%
- CD83+ (%) of mDC at 3 µg/mL Cifurtilimab: 95.7%
- CD83+ (%) of mDC at 10 µg/mL Cifurtilimab: 95.7%
- CD83+ (%) of mDC, agonist at 2 µg/mL (control group 81.00): 93.2%
- CD83+ (%), Cifurtilimab together with Atezolizumab, batch 1 (control with Atezolizumab alone 92.69): 96.9%
- CD83+ (%), Cifurtilimab together with Atezolizumab, batch 2 (control with Atezolizumab alone 64.27): 92.3%
- CD83+ (%), Cifurtilimab together with Atezolizumab, batch 3 (control with Atezolizumab alone 89.18): 97.6%
- CD83+ (%), Cifurtilimab together with Atezolizumab, batch 4 (control with Atezolizumab alone 75.24): 96.1%
- IL-12p70 (pg/mL) at 0.001 µg/mL Cifurtilimab: 10.2 pg/mL
- IL-12p70 (pg/mL) at 0.01 µg/mL Cifurtilimab: 10 pg/mL
- IL-12p70 (pg/mL) at 0.1 µg/mL Cifurtilimab: 309 pg/mL
- IL-12p70 (pg/mL) at 1 µg/mL Cifurtilimab: 312 pg/mL
- IL-12p70 (pg/mL) at 3 µg/mL Cifurtilimab: 397 pg/mL
- IL-12p70 (pg/mL) at 10 µg/mL Cifurtilimab: 402 pg/mL
- IL-12p70 (pg/mL), Cifurtilimab together with Atezolizumab, batch 1 (control with Atezolizumab alone 4.1): 450 pg/mL
- IL-12p70 (pg/mL), Cifurtilimab together with Atezolizumab, batch 2 (control with Atezolizumab alone 4.8): 1220 pg/mL
- IL-12p70 (pg/mL), Cifurtilimab together with Atezolizumab, batch 3 (control with Atezolizumab alone 5.7): 1110 pg/mL
- IL-12p70 (pg/mL), Cifurtilimab together with Atezolizumab, batch 4 (control with Atezolizumab alone 5.0): 454 pg/mL
- IL-12p70 (pg/mL), agonist at 2 µg/mL (control group 50.0): 1490 pg/mL
- functional and activity indices of mDC (CD83, IL-12, T cell activation) against antibody concentration: > 0.1 µg/mL
- increase of IFN-γ secreting T cells over control, Cifurtilimab together with Atezolizumab: 21.8%
- increase rate of CD83 positive ratio over control, Cifurtilimab together with Atezolizumab: 19.1%
- mean CD83+ cells (%), Cifurtilimab together with Atezolizumab (control 80.35%): 95.7%
- mean IL-12 secretion, Cifurtilimab together with Atezolizumab (control 4.9 pg/mL): 746 pg/mL
B1: Cifurtilimab (antibody, INN chains, looked up, V domains shown)
VH: EVQLVESGGGLVQPGGSLRLSCAASGYSFTGYYIHWVRQAPGKGLEWVARVIPNAGGTSYNQKFKGRFTLSVDNSKNTAYLQMNSLRAEDTAVYYCAREGIYWWGQGTLVTVSS
VL: DIQMTQSPSSLSASVGDRVTITCRSSQSLVHSNGNTFLHWYQQKPGKAPKLLIYTVSNRFSGVPSRFSGSGSGTDFTLTISSLQPEDFATYFCSQTTHVPWTFGQGTKVEIK

- CD83+ (%) of mDC, agonist at 2 µg/mL (control group 81.00): 95.7%
- IL-12p70 (pg/mL), agonist at 2 µg/mL (control group 50.0): 1470 pg/mL
B2: Mitazalimab (antibody, INN chains, looked up, V domains shown)
VH: EVQLLESGGGLVQPGGSLRLSCAASGFTFSTYGMHWVRQAPGKGLEWLSYISGGSSYIFYADSVRGRFTISRDNSENALYLQMNSLRAEDTAVYYCARILRGGSGMDLWGQGTLVTVSS
VL: QSVLTQPPSASGTPGQRVTISCTGSSSNIGAGYNVYWYQQLPGTAPKLLIYGNINRPSGVPDRFSGSKSGTSASLAISGLRSEDEADYYCAAWDKSISGLVFGGGTKLTVL
